Assay results reported in US20260109747A1.

Tests used:
Experiment in all cases: cell-based or functional assay
[1] = molecular target: cynomolgus monkey IL-2Rα/β/γ (cynomolgus monkey)
mouse IL-2Rβ/γ (mouse) = molecular target: T1, mouse IL-2Rβ/γ (mouse) (UniProt P16297)
T1 sequence (looked up) 1: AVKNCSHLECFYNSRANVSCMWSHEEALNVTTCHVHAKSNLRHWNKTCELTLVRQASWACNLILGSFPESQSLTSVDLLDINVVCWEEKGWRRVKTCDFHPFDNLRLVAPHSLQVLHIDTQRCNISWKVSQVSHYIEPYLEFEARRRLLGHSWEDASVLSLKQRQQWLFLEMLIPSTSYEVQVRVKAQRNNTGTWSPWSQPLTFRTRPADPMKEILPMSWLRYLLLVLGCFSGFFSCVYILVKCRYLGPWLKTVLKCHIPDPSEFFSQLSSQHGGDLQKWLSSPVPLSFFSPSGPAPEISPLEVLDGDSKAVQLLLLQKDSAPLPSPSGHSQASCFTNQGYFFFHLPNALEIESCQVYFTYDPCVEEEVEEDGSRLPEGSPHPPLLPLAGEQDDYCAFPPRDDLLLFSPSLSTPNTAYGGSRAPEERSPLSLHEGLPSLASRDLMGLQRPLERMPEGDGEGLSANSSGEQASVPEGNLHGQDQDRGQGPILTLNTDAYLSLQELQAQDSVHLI
T1 sequence (looked up) 2: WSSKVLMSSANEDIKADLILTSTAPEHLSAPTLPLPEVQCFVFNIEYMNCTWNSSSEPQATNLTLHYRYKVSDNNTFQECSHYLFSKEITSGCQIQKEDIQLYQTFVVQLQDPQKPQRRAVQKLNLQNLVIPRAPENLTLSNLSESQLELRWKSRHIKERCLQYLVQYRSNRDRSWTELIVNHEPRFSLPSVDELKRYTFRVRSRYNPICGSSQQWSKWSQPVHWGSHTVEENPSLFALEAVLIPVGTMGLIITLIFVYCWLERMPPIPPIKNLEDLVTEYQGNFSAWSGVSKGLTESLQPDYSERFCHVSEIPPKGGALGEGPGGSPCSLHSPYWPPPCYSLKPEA

human IL-2Rα/β/γ (human) = human IL-2Rα/β/γ (human) (UniProt P01589)
Chain of human IL-2Rα/β/γ (human) (P01589 22-272, chain 1 of 3): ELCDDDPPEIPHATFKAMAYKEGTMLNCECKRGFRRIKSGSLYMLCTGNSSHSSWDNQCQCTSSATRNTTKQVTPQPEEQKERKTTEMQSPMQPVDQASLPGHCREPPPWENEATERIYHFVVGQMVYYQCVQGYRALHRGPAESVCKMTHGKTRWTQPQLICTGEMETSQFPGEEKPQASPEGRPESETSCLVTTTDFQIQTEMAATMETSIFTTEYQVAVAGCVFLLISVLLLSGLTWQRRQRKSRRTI
Chain of human IL-2Rα/β/γ (human) (P14784 27-551, chain 2 of 3, further chain): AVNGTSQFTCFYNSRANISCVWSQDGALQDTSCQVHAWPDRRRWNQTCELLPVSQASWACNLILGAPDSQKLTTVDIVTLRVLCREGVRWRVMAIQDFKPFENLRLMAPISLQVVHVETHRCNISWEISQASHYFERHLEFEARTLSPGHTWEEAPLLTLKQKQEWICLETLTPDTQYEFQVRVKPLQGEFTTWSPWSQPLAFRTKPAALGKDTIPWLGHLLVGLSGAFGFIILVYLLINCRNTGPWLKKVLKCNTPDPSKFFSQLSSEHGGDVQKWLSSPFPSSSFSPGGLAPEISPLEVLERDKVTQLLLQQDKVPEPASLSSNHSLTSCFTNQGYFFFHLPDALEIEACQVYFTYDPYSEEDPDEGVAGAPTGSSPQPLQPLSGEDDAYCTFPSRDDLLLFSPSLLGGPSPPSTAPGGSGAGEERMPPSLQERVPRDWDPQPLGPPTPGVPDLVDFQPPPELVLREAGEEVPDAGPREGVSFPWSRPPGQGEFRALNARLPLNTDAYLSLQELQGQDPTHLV
Chain of human IL-2Rα/β/γ (human) (P31785 23-369, chain 3 of 3, further chain): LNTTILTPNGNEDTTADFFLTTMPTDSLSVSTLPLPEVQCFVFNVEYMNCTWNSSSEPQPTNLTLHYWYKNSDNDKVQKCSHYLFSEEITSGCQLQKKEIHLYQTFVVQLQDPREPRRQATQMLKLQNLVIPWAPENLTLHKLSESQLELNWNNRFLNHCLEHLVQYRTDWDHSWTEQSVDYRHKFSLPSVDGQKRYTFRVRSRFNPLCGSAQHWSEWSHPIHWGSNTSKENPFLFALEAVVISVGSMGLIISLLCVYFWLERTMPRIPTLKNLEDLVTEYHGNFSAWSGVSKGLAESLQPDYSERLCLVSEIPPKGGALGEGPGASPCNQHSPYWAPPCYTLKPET

human IL-2Rβ/γ (human) = human IL-2Rβ/γ (human) (UniProt P14784)
Chain of human IL-2Rβ/γ (human) (P14784 27-551, chain 1 of 2): as the sequence (P14784 27-551, chain 2 of 3, further chain) above
Chain of human IL-2Rβ/γ (human) (P31785 23-369, chain 2 of 2, further chain): as the sequence (P31785 23-369, chain 3 of 3, further chain) above

Chain of his-tagged mammalian expressed control human IL-2, compound 13 (P60568 other isoform, or with tags, fused parts or gaps limits assumed): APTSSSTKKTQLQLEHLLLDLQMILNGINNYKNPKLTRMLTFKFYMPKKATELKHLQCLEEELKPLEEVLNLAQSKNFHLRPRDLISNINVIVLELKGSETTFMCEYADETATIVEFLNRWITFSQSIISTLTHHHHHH

pSTAT5 EC50, Treg, cynomolgus monkey whole blood [1]: 0.09 ng/mL
pSTAT5 EC50, CD8, mouse blood (mouse IL-2Rβ/γ (mouse)): 24000 ng/mL
pSTAT5 EC50, NK, mouse blood (mouse IL-2Rβ/γ (mouse)): 9690 ng/mL
pSTAT5 EC50, Treg, human whole blood (human IL-2Rα/β/γ (human)): 0.09 ng/mL
pSTAT5 EC50, CD8, human blood (additional experiments) (human IL-2Rβ/γ (human)): 4.94 ng/mL
pSTAT5 EC50, CD8, human whole blood (human IL-2Rβ/γ (human)): 25.7 ng/mL
pSTAT5 EC50, NK, human blood (additional experiments) (human IL-2Rβ/γ (human)): 17.6 ng/mL
pSTAT5 EC50, NK, human whole blood (human IL-2Rβ/γ (human)): 6.01 ng/mL
Substance: his-tagged mammalian expressed control human IL-2, compound 13 (from UniProt P60568 21-153) (ligand)
